Among the data in article PMC7589614 are Kd values, retold here.

One may read the Kd as a measure of binding affinity in units of concentration.

Where two headings read alike, the source gives them in different places.

For data set [1], the target named is AbnA-D2 (D2), his-tagged arabinase family protein (Geobacillus stearothermophilus T-6) (UniProt B3EYN2). As to conditions: 5'-amino; Selection buffers listed (assay buffer and temperature not stated in material): AGR2 137 mM NaCl, 20 mM KCl, 10 mM Na2HPO4, 2 mM KH2PO4 pH 7.4; 6H7 50 mM …; cited from earlier work.
The target is the same in data set [2]. The data set can be described thus: porous silicon RIFTS (EOT) biosensor. As to conditions: 5'-amino; Selection buffers listed (assay buffer and temperature not stated in material): AGR2 137 mM NaCl, 20 mM KCl, 10 mM Na2HPO4, 2 mM KH2PO4 pH 7.4; 6H7 50 mM ….

Turning to “GCTATGGGTGGTCTGGTTGGGATTGGCCCCGGGAGCTGGC [anti-his tag aptamer 6H7]”, the dissociation constant (Kd) in data set [1] was 4.6 µM; in data set [2] it was 29 µM.
